Consider 3 molecules from US20240209099A1 (SUZHOU TRANSCENTA THERAPEUTICS, published 2024).

Test [1] has as its target T1, mouse VEGFR2 (mouse, UniProt P35918 20-762, limits assumed). As to the kind of experiment: ELISA, 500 ng/mL mouse VEGFR2 coated, three lots. The method, then: (§1) ELISA binding assay was conducted to confirm its binding affinity. Briefly, ELISA plates were coated with 500 ng/mL mouse VEGFR2 in coating buffer (0.16% Na₂CO₃, 0.30% NaHCO₃) and incubated at 4° C. overnight. After twice washing, blocking buffer (1% BSA, 1% goat serum, 0.05% Tween20 in PBS) was added and plates were incubated at room temperature for 2 hours. After three times washing, serial diluted chimeric-DC101 was added in dilution buffer (1% BSA, 1% goat serum, 0.01% Tween20 in PBS) and plates were incubated at room temperature for 3 hours. After three times washing, goat anti-human HRP (1:5000 diluted) was added and plates were incubated at room temperature for 1 hour. Finally, after three times washing, TMB was added and 4 mins later 0.16 mol/L sulfuric acid was added to terminate the reaction. OD450 nm was read and recorded.

Test [2] deals with T1, mouse VEGFR2. As to the kind of experiment: ELISA, mouse VEGFR2 coated (500 ng/mL), goat anti-human HRP. Here is the method:
as §1

The target of test [3] is T1, mouse VEGFR2. In words: competition ELISA: human VEGF165 coated (250 ng/mL), antibody titrated with 1000 ng/mL mouse VEGFR2, bound mouse VEGFR2 detected; blocked ligand human VEGF165. The method, then: ELISA blocking assay was conducted to confirm its VEGF blockade activity. Briefly, ELISA plates were coated with 250 ng/mL recombinant human VEGF165 in coating buffer and incubated at 4° C. overnight. After twice washing, blocking buffer was added and plates were incubated at room temperature for 2 hours. After three times washing, serial diluted chimeric-DC101 was added in dilution buffer and then 1000 ng/mL mouse VEGFR2 was added. Plates were incubated at room temperature for 3 hours. After three times washing, polyclonal anti-mouse VEGFR2 with mouse Fc (1: 1000) was added and plates were incubated at room temperature for 1 hour. After three times washing, goat anti-mouse HRP (1:5000 diluted) was added and plates were incubated at room temperature for 1 hour. Finally, after three times washing, TMB was added and 4 mins later 0.16 mol/L sulfuric acid was added to terminate the reaction. OD450 nm was read and recorded.

Test [4] deals with T2, Recombinant Human VEGFR2/KDR Protein, His tag (hVEGFR2-his) (human, UniProt P35968 20-764).
T2 construct: Expressed in HEK293, bought from ACRO Biosystems; also called human VEGFR2-his; Human VEGFR2/KDR-His
As to the kind of experiment: ELISA, hVEGFR2-his coated. Here is the method:
Same protocol of Example 2 antibody screening by ELISA assay. Briefly, 0.5 μg/ml hVEGFR2-his was coated and serially diluted purified antibodies would bind to coated antigen. Using HRP conjugated goat anti-mouse Fc antibody could detect binding signals of each antibody.
The hybridoma antibodies have similar affinity to human.

Test [5] addresses T2, Recombinant Human VEGFR2/KDR Protein, …. In words: SPR (Biacore), antibody captured by anti-Fc, antigen 2.5-80 nM. Here is the method: (§2) A CM5 sensor chip was activated in each flow cell by 7-min injection (10 μl/min) of freshly prepared 1:1 50 mM N-hydroxysuccinimide (NHS): 200 mM 1-ethyl-3-(3-dimethylaminopropyl)-carbodiimide (EDC). Then anti-human Fc antibody (GE Healthcare) in a concentration of 10 μg/ml in 10 mM sodium acetate buffer PH 5.0 was injected onto the activated chip at 10 μl/min (HBS-EP running buffer: 10 mM HEPES, 150 mM NaCl, 3.4 mM EDTA, 0.005% surfactant P20, pH 7.4). The remaining active coupling sites were blocked by 7 min injection of 1M ethanolamine at 10 μl/min. The immobilization level of each flow cell is ˜9000RU. Antibodies were captured in FC2 by anti-human Fc IgG or anti-mouse Fc (GE Healthcare) to 200˜300RU. FC1 was used as the reference cell. Antigen was injected at varying concentrations (2.5 nM, 5 nM, 10 nM, 20 nM, 40 nM and 80 nM) after capture of antibody. The association time for antibody binding antigen is 180s. Surface Regeneration condition is 120s at 10 μl/min in Gly pH1.5. The signals with captured antibody subtracted from those without captured antibody were calculated with Biacore X100 evaluation software ver. 2.0 (Biacore).

For test [6], the target named is T3, human VEGFR2 on HUVEC cells (human, UniProt P35968 20-1356).
T3 construct: also called hVEGFR2 on HUVEC
In words: flow cytometry on HUVEC cells, percent shifted cells (Shift%), anti-mouse IgG-PE. Here is the method:
Log phase HUVEC cells were collected, counted and resuspended in FACS buffer (5% BSA+PBS). 2×10∧5 cells were added to each tube and then washed once with PBS (1500 rpm, 5 mins, RT). Then […] serial diluted VEGFR2 antibodies purified from hybridoma supernatant in FACS buffer were added into corresponding tubes and were incubated at 4° C. for 1 hr. The cells were then washed twice with 1 ml PBS, followed by adding 100 μl/tube of 2nd antibody (1:400 anti-mIgG (H+L)-PE, Cell signaling #8887) in FACS buffer. The cells were incubated at 4° C. for 0.5 hr and then washed twice with PBS, followed by resuspending cells in 600 μl PBS for each sample. The cells were then transferred into FACS tube and the bindings of the antibodies to the cells were detected using flow cytometry (BD Accuri C6) (see FIG. 3).
The percentage of positive binding cells was calculated and fit by Graphpad Prism Software.

Test [7] addresses T2, Recombinant Human VEGFR2/KDR Protein, …. In words: SPR (Biacore), antibody captured by anti-Fc, antigen 2.5-80 nM; second entry for mAb054 10D11F4D1F6 (r13; r11 gives another run). Here is the method: as §2
Target sequence in this assay (P35968 other isoform, or with tags, fused parts or gaps): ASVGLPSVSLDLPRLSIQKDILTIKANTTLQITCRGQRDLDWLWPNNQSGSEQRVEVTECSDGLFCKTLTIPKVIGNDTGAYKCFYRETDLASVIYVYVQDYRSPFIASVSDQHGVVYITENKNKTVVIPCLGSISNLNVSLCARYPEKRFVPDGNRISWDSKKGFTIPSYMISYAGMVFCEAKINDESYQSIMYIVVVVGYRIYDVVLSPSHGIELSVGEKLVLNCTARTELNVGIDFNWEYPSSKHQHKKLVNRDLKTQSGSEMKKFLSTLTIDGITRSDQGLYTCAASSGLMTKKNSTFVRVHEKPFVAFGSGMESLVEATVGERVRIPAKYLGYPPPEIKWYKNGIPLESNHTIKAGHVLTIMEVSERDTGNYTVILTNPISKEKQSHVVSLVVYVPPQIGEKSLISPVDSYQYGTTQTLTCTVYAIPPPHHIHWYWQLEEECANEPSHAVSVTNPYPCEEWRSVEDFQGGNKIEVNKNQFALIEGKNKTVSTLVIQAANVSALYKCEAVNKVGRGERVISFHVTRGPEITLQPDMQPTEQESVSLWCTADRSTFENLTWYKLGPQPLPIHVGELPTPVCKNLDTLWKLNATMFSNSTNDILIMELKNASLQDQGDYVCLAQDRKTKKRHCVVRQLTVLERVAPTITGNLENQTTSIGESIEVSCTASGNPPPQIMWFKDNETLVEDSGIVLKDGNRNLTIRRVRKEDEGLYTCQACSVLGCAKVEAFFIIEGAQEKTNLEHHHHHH
Test [8] has the same target. As to the kind of experiment: competition ELISA on coated hVEGFR2-his: hybridoma antibody titrated against 100 ng/ml chimeric 002C, anti-human IgG Fc-HRP.
The target is the same in test [9]. In words: competition ELISA: hVEGFR2-his coated (1 ug/ml), antibody titrated, then 0.3 ug/ml hVEGF-A added and bound VEGF-A detected; blocked ligand hVEGF-A. Here is the method: High-binding clear polystyrene 96 well plates were coated with 100 μl/well of 1 μg/ml hVEGFR2-his overnight at 4° C. After washing and blocking, serial diluted antibodies (from 10 μg/ml to 0.0006 μg/ml) were added and incubate for 1 hour at RT. 0.3 μg/ml hVEGF-A (Acrobiosystem, Cat #VE5-H4210) were added and incubated for 2 hour at RT. Then 100 μl/well of 0.25 μg/ml Biotinylated Rabbit Anti-human VEGF-A (Peprotech, Cat #400-P10Bt) was then added for detecting bound VEGF-A. Then 100 μl/well of a solution of HRP conjugated Neutravidin antibody (Pierce, Cat #31001) and TMB were added sequentially. Finally, reaction was terminated using 0.64M H₂SO₄ and plates were read at 450 nm.

Test [10] has the same target. As to the kind of experiment: competition ELISA on coated hVEGFR2-his: hybridoma antibody titrated against 100 ng/ml chimeric 054C, anti-human IgG Fc-HRP.

Positions count from the first letter of the chain named. Several values for one entry are separate records, joined by “and”; a condition that tells them apart may be missing. Identical values can stand only once. Where only a bound is given, the exact number is not on record here.

T1 sequence (P35918 20-762 limits assumed): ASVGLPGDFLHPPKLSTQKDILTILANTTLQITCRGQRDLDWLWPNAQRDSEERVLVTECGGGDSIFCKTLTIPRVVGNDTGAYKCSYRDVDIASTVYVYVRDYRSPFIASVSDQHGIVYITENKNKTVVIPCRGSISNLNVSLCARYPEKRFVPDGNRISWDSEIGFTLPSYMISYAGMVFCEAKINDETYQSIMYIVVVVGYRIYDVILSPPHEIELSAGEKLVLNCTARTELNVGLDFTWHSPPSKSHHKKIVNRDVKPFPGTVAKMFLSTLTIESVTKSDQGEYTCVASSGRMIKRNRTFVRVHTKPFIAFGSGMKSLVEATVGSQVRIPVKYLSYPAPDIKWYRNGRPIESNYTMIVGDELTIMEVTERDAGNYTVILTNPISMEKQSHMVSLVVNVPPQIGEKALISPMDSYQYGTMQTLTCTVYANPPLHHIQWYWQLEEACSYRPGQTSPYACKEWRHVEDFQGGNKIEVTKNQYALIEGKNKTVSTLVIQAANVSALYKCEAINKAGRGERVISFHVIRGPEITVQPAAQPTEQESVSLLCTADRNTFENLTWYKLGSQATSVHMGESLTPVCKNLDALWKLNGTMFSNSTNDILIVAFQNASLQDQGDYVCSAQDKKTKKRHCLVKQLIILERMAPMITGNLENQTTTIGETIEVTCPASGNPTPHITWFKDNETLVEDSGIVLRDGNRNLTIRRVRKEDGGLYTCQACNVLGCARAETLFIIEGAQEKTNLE

B1: chimeric-DC101 (anti-mouse VEGFR2 antibody DC101 with human IgG1 Fc) (antibody, V domains shown)
VH: EVQLVETGGGLVQPGNSLKLSCATSGFIFSTTWMNWIRQTPGKRLEWLAQIEDKSNNYFISYSESVKGRFTISRDDSKSSVYLQMNNLKEEDTAIYYCSWKYRSNYYFDYWGQGVMVTVSS
VL: DIVLTQSPALAVSLEQRATISCKTSQNVDYYGISYLHWYQQKPGQQPKLLIYEGSNLASGIPARFSGSGSGTDFTLTIDPVEADDIVTYYCQQSKDYPYTFGAGTKLELKR
For B1, the EC50 is around 0.06 µg/mL in test [1]; 0.0645 µg/mL and 0.0477 µg/mL and 0.0764 µg/mL in [2]. For the same molecule, the IC50 in [3] is 0.301 µg/mL and 0.28 µg/mL and 0.265 µg/mL.

B2: 054 (mouse hybridoma antibody) (antibody, V domains shown)
VH: EVQLVESGGDLVKPGGSLKLSCAASGFTFSMYGMSWVRQTPDKRLEWVASISIGGSYTYYADSVEGRFIISRENAKNTLFLQMNSLKSEDTALYYCARELDGNYDYWGQGTTLTVSS
VL: HIMITQDELSNPVTFGESVSISCRSSKSLLYKDGKTYLNWFLQRPGQSPQLLIYLMSTRASGVSDRFSGSGSGTDFTLEISRVKAEDVGIYYCQQLVEYPFTFGSGTKLEIK
notes: Mouse antibody purified from hybridoma; also called mAb054; 10D11
As to B2, the EC50 was 0.00809 µg/mL in test [4] and 0.0612 µg/mL in [6]. The koff in test [5] stood at 9.12e-05 s⁻¹; in test [7] it was 1.22e-05 s⁻¹. In addition, the kon in test [5] was 91800 M⁻¹ s⁻¹ and 97000 M⁻¹ s⁻¹. The “IC50 (read off the curve)” value in [8] was around 0.1 µg/mL. In addition, the IC50 in [9] came out at 0.0433 µg/mL.

B3: 048 (mouse hybridoma antibody) (antibody, V domains shown)
VH: B2 VH with I69T, L100M, Q109H
VL: B2 VL with H1D, I2V
notes: Mouse antibody purified from hybridoma; also called mAb048; 5G4
With B3, in [4], the EC50 came out at 0.0232 µg/mL. In test [5], the Kd is below 1 pM, the koff is below 1e-07 s⁻¹ and the kon worked out at 1.14e+06 M⁻¹ s⁻¹. Moreover, the EC50 in [6] came out at 0.024 µg/mL. Further, in test [8], the “IC50 (read off the curve)” value is around 0.07 µg/mL. Besides, the “IC50 (read off the curve)” value in test [10] was around 0.2 µg/mL. In addition, the IC50 in test [9] amounted to 0.0416 µg/mL.
